Drawing on paper PMC11754754, “Structure and mechanism of biosynthesis of Streptococcus mutans cell wall polysaccharide” (Nature Communications, 2025), this text covers Km and Vmax for two substances.

Broadly, the Km is the concentration of substrate that gives half-maximal velocity. Usually Vmax stands for the rate approached at saturating substrate.

For series [1], the system named is CC(C)=CCC/C(C)=C/CC/C(C)=C/CC/C(C)=C\CC/C(C)=C\CC/C(C)=C\CC/C(C)=C\CC/C(C)=C\CC/C(C)=C\CC/C(C)=C\CC/C(C)=C\COP(=O)(O)O. Put plainly: radiometric [3H]Glc-lipid formation, E. coli membrane fraction. The class given is biochemical, Streptococcus mutans. The settings on record: co-substrate UDP-[3H]Glc, Und-P dispersed in CHAPS, 20 mM MgCl2, pH 7.4, 37 °C. From the text:
(§1) radiometric [3H]Glc-lipid formation, E. coli membrane fraction on SccN

In series [2] the test system is O=c1ccn([C@@H]2O[C@H](CO[P@@](=O)(O)O[P@@](=O)(O)O[C@H]3O[C@H](CO)[C@@H](O)[C@H](O)[C@H]3O)[C@@H](O)[C@H]2O)c(=O)[nH]1. The series is described as above. The class given is biochemical, Streptococcus mutans. The settings on record: labelled compound (UDP-[3H]Glc), co-substrate Und-P in CHAPS, 20 mM MgCl2, pH 7.4, 37 °C.
Source text: as §1

Series [3] concerns CC(C)=CCC/C(C)=C/CC/C(C)=C/CC/C(C)=C\CC/C(C)=C\CC/C(C)=C\CC/C(C)=C\CC/C(C)=C\CC/C(C)=C\CC/C(C)=C\CC/C(C)=C\COP(=O)(O)O. Put plainly: cells, lysate or membranes. To be noted: co-substrate UDP-[3H]Glc, Und-P dispersed in CHAPS, 20 mM MgCl2, pH 7.4, 37 °C.
Source text: (§2) radiometric [3H]Glc-lipid formation, E. coli membrane fraction on SccP
The test system of series [4] is O=c1ccn([C@@H]2O[C@H](CO[P@@](=O)(O)O[P@@](=O)(O)O[C@H]3O[C@H](CO)[C@@H](O)[C@H](O)[C@H]3O)[C@@H](O)[C@H]2O)c(=O)[nH]1. Put plainly: cells, lysate or membranes. The settings on record: labelled compound (UDP-[3H]Glc), co-substrate Und-P in CHAPS, 20 mM MgCl2, pH 7.4, 37 °C.
Source text: as §2

Regarding SccN (Streptococcus mutans UA159), in series [1], the Km was found to be 5.85 µM and the Vmax is 5.42 µmol/min/mg. Further, in series [2], the Km is 1.61 µM and the Vmax was found to be 3.16 µmol/min/mg.
Regarding SccP (Streptococcus mutans UA159), in series [3], the Km was 2.56 µM and the Vmax was found to be 0.96 µmol/min/mg. For the same substance, in series [4], the Km is 2.50 µM and the Vmax came to 0.93 µmol/min/mg.
